Where a SMILES comes first, the peptide text is derived from it.
Key:
Assay in all cases: Kinase Profiling Assay
Type in all cases: biochemical
GSK3β(h) = target: T1, GSK3β(h) (Homo sapiens, UniProt P49841); conditions: 100 μM peptide
T1 construct: purchased Millipore
How it was run: (§1)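 First, MK2 inhibitor peptides were applied to a panel of 266 human kinases; then each kinase's activity was measured in duplicate to assess off-target inhibition.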

PRAK(h) = target: T2, PRAK(h) (Homo sapiens, UniProt Q8IW41); conditions: 100 μM peptide
T2 construct: purchased Millipore (IC50 Profiler Express service)
T2 sequence (Q8IW41 1-473): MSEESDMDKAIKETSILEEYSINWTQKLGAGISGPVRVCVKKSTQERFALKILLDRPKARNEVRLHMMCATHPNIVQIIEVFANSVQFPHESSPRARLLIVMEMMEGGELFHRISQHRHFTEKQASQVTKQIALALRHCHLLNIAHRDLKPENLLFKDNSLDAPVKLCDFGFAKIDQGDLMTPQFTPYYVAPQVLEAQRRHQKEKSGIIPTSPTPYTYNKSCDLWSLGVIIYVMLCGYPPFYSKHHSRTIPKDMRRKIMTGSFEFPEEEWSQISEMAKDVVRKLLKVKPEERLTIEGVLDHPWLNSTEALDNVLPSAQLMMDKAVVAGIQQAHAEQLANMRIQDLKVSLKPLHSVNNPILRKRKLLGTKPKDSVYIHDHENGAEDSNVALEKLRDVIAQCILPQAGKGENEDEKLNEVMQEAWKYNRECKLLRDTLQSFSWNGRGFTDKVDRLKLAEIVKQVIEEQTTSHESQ
How it was run: as §1

SGK2(h) = target: T3, SGK2(h) (Homo sapiens, UniProt Q9HBY8); conditions: 100 μM peptide
T3 sequence (Q9HBY8 1-367): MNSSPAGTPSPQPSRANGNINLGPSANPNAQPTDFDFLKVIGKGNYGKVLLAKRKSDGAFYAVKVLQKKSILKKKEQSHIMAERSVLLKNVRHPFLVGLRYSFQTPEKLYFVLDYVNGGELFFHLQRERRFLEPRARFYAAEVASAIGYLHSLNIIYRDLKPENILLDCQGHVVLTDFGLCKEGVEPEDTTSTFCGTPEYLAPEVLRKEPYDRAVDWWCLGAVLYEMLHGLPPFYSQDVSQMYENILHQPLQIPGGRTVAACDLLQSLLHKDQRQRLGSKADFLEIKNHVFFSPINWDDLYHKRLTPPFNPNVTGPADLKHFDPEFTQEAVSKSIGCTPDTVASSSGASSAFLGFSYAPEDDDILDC
How it was run: as §1

Lyn(h) = Lyn(h) (Homo sapiens, UniProt P07948); conditions: 100 μM peptide
How it was run: as §1

MAPKAP-K2(h) = MAPKAP-K2(h) (Homo sapiens, UniProt P49137); conditions: for MAPKAP-K2(h) % activity: 100 μM peptide
How it was run: as §1

GCK(h) = target: T4, GCK(h) (Homo sapiens, UniProt Q12851); conditions: 100 μM peptide
T4 construct: purchased Millipore
T4 sequence (Q12851 1-820): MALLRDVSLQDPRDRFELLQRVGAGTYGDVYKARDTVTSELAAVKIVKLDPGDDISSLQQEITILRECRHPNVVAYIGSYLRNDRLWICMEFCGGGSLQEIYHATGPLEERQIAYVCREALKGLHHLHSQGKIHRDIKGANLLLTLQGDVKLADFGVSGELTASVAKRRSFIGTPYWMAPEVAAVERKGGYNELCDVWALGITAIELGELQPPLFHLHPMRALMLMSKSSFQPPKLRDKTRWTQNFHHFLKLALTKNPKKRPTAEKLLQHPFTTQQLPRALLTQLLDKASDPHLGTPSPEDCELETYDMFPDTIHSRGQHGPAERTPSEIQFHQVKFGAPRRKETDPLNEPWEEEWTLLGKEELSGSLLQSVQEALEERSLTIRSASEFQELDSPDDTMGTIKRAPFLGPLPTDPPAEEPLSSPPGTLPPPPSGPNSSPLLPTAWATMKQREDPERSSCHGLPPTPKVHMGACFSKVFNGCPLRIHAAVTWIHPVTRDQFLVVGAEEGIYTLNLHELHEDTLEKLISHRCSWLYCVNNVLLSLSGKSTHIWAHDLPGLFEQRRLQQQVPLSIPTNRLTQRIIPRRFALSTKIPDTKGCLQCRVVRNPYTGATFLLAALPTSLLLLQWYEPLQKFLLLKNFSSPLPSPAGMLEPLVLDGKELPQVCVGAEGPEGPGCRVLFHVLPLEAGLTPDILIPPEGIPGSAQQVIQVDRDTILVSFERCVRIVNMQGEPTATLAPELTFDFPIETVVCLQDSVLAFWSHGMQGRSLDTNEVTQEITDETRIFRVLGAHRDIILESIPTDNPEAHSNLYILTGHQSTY
How it was run: as §1

TSSK1(h) = target: T5, TSSK1(h) (Homo sapiens, UniProt Q9BXA7); conditions: 100 μM peptide
T5 sequence (Q9BXA7 1-367): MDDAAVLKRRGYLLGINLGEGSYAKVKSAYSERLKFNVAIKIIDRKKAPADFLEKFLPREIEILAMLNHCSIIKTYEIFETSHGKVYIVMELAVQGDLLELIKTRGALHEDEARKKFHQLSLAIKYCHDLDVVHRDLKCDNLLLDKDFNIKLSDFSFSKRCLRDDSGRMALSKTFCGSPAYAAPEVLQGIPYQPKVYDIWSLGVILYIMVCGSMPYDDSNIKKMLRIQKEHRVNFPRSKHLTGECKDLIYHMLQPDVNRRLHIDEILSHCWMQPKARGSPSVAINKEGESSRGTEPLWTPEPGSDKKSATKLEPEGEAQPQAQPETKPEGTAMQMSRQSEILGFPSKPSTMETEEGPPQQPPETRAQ
How it was run: as §1

Lyn(h), sequence (P07948 whole entry): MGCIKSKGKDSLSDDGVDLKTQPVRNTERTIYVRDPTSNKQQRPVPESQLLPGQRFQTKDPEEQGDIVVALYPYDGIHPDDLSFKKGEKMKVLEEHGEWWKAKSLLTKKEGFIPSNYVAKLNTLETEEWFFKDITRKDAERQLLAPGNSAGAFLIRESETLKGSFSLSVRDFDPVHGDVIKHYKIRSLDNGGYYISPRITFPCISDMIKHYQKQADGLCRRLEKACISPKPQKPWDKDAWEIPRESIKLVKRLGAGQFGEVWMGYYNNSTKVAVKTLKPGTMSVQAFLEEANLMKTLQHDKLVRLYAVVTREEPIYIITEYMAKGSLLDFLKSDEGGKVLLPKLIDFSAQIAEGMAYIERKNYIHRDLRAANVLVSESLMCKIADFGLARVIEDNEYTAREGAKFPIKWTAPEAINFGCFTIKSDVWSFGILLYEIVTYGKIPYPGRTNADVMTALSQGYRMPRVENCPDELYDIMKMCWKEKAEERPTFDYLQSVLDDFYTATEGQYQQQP
MAPKAP-K2(h), sequence (P49137 whole entry): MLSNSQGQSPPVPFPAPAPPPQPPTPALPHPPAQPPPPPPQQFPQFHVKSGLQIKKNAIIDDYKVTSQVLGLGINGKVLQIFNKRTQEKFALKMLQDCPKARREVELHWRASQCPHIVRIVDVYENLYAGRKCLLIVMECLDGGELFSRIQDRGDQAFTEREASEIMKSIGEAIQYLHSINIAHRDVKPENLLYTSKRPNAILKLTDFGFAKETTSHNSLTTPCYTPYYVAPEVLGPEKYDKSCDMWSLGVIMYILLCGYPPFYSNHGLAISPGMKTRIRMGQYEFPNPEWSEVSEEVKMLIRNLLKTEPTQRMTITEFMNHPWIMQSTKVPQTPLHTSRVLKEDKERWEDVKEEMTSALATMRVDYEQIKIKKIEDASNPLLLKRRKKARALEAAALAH
T1 sequence (P49841 whole entry): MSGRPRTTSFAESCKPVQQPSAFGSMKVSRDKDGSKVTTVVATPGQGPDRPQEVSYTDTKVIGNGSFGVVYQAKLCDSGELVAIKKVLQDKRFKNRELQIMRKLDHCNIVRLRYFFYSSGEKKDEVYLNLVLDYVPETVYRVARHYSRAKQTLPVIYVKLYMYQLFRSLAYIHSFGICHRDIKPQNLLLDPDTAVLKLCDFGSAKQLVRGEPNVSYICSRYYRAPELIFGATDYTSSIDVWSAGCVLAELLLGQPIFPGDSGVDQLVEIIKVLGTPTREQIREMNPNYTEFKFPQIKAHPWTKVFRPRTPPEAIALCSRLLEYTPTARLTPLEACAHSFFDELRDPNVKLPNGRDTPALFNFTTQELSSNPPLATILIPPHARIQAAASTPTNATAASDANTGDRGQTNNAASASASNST

Row | Compound | GSK3β(h) % activity (GSK3β(h)) [%] | PRAK(h) % activity (PRAK(h)) [%] | SGK2(h) % activity (SGK2(h)) [%] | Lyn(h) % activity (Lyn(h)) [%] | MAPKAP-K2(h) % activity (MAPKAP-K2(h)) [%] | GCK(h) % activity (GCK(h)) [%] | TSSK1(h) % activity (TSSK1(h)) [%] | inhibition at 100 µM (MAPKAP-K2(h); read-out: inhibition of kinase activity of MK2) [%]
1 | HRRIKAWLKKIKALARQLGVAA (Mammalian) [MMI-0500] | 238 | 95 | −1 | 31 | 9 | 30 | 46 | 
2 | KAFAKLAARLYRKALARQLGVAA [MMI-0400] | 202 | 118 | 98 | 3 | 5 | 66 | 79 | 
3 | FAKLAARLYRKALARQLGVAA [MMI-0300] | 205 | 128 | 56 | 69 | 5 | 70 | 79 | 
4 | YARAAARQARAKALNRQLGVA (Mammalian) [MMI-0200] | 132 |  |  | 98 | 35 | 99 | 98 | 
5 | CC(C)C[C@H](NC(=O)[C@H](C)NC(=O)[C@H](CCCCN)NC(=O)[C@H](C)NC(=O)[C@H](CCCNC(=N)N)NC(=O)[C@H](C)NC(=O)[C@H](CCC(N)=O)NC(=O)[C@H](CCCNC(=N)N)NC(=O)[C@H](C)NC(=O)[C@H](C)NC(=O)[C@H](C)NC(=O)[C@H](CCCNC(=N)N)NC(=O)[C@H](C)NC(=O)[C@@H](N)Cc1ccc(O)cc1)C(=O)N[C@@H](C)C(=O)N[C@@H](CCCNC(=N)N)C(=O)N[C@@H](CCC(N)=O)C(=O)N[C@@H](CC(C)C)C(=O)NCC(=O)N[C@H](C(=O)N[C@@H](C)C(=O)N[C@@H](C)C(=O)O)C(C)C [MMI-0100] (H-YARAAARQARAKALARQLGVAA-OH; N-terminus and C-terminus assumed) |  |  |  |  |  |  |  | > 65

Reference: patent US10562947B2, “Compositions and methods for preventing or treating diseases, conditions or processes characterized by aberrant fibroblast proliferation and extracellular matrix deposition” (MOERAE MATRIX, INC., priority 2011, dated 2020)
